According to US20200291109A1, “Composition to induce bone marrow stem cell mobilization” (Universitá degli Studi di Padova, priority 2014, published 2020):

Assays:
[1] = test system: LKS stem cells; test: G-CSF alone induced mobilization of LKS stem cells in diabetic mice; type: in vivo; details: G-CSF only
Description: In order to obtain in vivo validation of such mechanism, inhibition of oncostatin M (OSM) has been carried out in mice induced with diabetes by injecting streptozotocin as mentioned above and analyzed after 4 weeks from hyperglycemia development, by intraperitoneal injection of a polyclonal neutralizing antibody (AF-495-NA, R&D Systems) specific for murine oncostatin M (OSM), before beginning a marrow stimulation cycle by a subcutaneous injection of G-CSF ([…] for 4 consecutive days).

[2] = test system: SDF-1α/CXCL12 expression in human mesenchymal stem cells; test: Induction of SDF-1α/CXCL12 gene expression in human mesenchymal stem cells by oncostatin M (qPCR); type: cell-based; details: increasing concentrations of OSM
Description: Therefore, the effect of such media on the gene expression of SDF-1α/CXCL12 in human (stromal) mesenchymal stem cells by qPCR was evaluated (primers forward ATGCCCATGCCGATTCTT [SEQ ID NO. 5]; reverse […] [SEQ ID NO. 6]; reference sequence NCBI NM_000609.6).

Molecule | mobilization of LKS stem cells [1] | expression of SDF-1α/CXCL12 [2]
G-CSF: granulocyte colony stimulating factor, growth factor used for stem cell mobilization (protein, UniProt P09919 31-207, looked up) Granulocyte …: TPLGPASSLPQSFLLKCLEQVRKIQGDGAALQEKLVSECATYKLCHPEELVLLGHSLGIPWAPLSSCPSQALQLAGCLSQLHSGLFLYQGLLQALEGISPELGPTLDTLQLDVADFATTIWQQMEELGMAPALQPTQGAMPAFASAFQRRAGGVLVASHLQSFLEVSYRVLRHLAQP | not able to induce mobilization | 
oncostatin M (OSM): 28-kDa glycoprotein of cytokine family, macrophage derived factor (protein) AAIGSCSKEYRVLLGQLQKQTDLMQDTSRLLDPYIRIQGLDVPKLREHCRERPGAFPSEETLRGLGRRGFLQTLNATLGCVLHRLADLEQRLPKAQDLERSGLNIEDLEKLQMARPNILGLRNNIYCMAQLLDNSDTAEPTKAGRGASQPPTPTPASDAFQRKLEGCRFLHGYHRFMHSVGRVFSKWGESPNRSRR |  | progressively increase the expression
